This assay deals with CRC-TIC spheroid lines that carried wild-type RAS/RAF genes (HC6T, HC9T, HC11T, HC21T). As to the kind of experiment: Stimulation of spheroid growth with EGF and/or bFGF, luminescence-based growth monitoring (GEI). In kind it is cell-based, human. As to conditions: HC11T. As to the method: Luminescence was determined daily or 3 days later. The cell growth rate for each well was estimated as the proportion of photon counts to those on day 1. Four or six replicates (with similar statistical power) were analyzed for each data point in all experiments except for the chemical compound screening assays.
To investigate whether EGF and bFGF helped spheroid proliferation in the cancer medium as described above, we cultured with EGF and/or bFGF four slow-growing CRC-TIC spheroid lines that carried wild-type RAS/RAF genes (HC6T, HC9T, HC11T, HC21T). Because EGF/bFGF facilitated the growths of these spheroid lines substantially (FIG. 3A), we then quantified their effects by the luminescence-based growth monitoring. To calibrate the effects, we introduced the growth effect index (GEI) defined as the relative growth rate of a treated group to that of its solvent-only control in each paired assay. […] The extents of growth promotion by EGF and bFGF were different depending on the spheroid line. […] In another spheroid line (HC21T), the effects were similar between the two growth factors (FIG. 3B).

B1: EGF: epidermal growth factor, recombinant human protein (protein, UniProt P01133 23-1207, looked up)
Pro-epidermal growth factor: PQHWSCPEGTLAGNGNSTCVGPAPFLIFSHGNSIFRIDTEGTNYEQLVVDAGVSVIMDFHYNEKRIYWVDLERQLLQRVFLNGSRQERVCNIEKNVSGMAINWINEEVIWSNQQEGIITVTDMKGNNSHILLSALKYPANVAVDPVERFIFWSSEVAGSLYRADLDGVGVKALLETSEKITAVSLDVLDKRLFWIQYNREGSNSLICSCDYDGGSVHISKHPTQHNLFAMSLFGDRIFYSTWKMKTIWIANKHTGKDMVRINLHSSFVPLGELKVVHPLAQPKAEDDTWEPEQKLCKLRKGNCSSTVCGQDLQSHLCMCAEGYALSRDRKYCEDVNECAFWNHGCTLGCKNTPGSYYCTCPVGFVLLPDGKRCHQLVSCPRNVSECSHDCVLTSEGPLCFCPEGSVLERDGKTCSGCSSPDNGGCSQLCVPLSPVSWECDCFPGYDLQLDEKSCAASGPQPFLLFANSQDIRHMHFDGTDYGTLLSQQMGMVYALDHDPVENKIYFAHTALKWIERANMDGSQRERLIEEGVDVPEGLAVDWIGRRFYWTDRGKSLIGRSDLNGKRSKIITKENISQPRGIAVHPMAKRLFWTDTGINPRIESSSLQGLGRLVIASSDLIWPSGITIDFLTDKLYWCDAKQSVIEMANLDGSKRRRLTQNDVGHPFAVAVFEDYVWFSDWAMPSVMRVNKRTGKDRVRLQGSMLKPSSLVVVHPLAKPGADPCLYQNGGCEHICKKRLGTAWCSCREGFMKASDGKTCLALDGHQLLAGGEVDLKNQVTPLDILSKTRVSEDNITESQHMLVAEIMVSDQDDCAPVGCSMYARCISEGEDATCQCLKGFAGDGKLCSDIDECEMGVPVCPPASSKCINTEGGYVCRCSEGYQGDGIHCLDIDECQLGEHSCGENASCTNTEGGYTCMCAGRLSEPGLICPDSTPPPHLREDDHHYSVRNSDSECPLSHDGYCLHDGVCMYIEALDKYACNCVVGYIGERCQYRDLKWWELRHAGHGQQQKVIVVAVCVVVLVMLLLLSLWGAHYYRTQKLLSKNPKNPYEESSRDVRSRRPADTEDGMSSCPQPWFVVIKEHQDLKNGGQPVAGEDGQAADGSMQPTSWRQEPQLCGMGTEQGCWIPVSSDKGSCPQVMERSFHMPSYGTQTLEGGVEKPHSLLSANPLWQQRALDPPHQMELTQ
modifications: Pro-epidermal growth factor
notes: epidermal growth factor, recombinant human protein
With B1, the “extent of growth promotion, bFGF versus EGF” value is “vice versa”.
